Results as given in patent publication CN112409479A (INST FOR VIRAL DISEASE CONTROL AND PREVENTION CHINESE …, dated 2021).

Target: T1, 新型冠状病毒S1蛋白 (纯化) (SARS-CoV-2, UniProt P0DTC2 14-685)
T1 construct: domain: S1
Experiment: ELISA, purified IgG on coated S1 protein

B1: 人源抗新冠病毒中和性抗体nCoV-121 全抗体IgG (antibody)
light: NFMLTQPHSVSESPGKTVTISCTRSSGSIASNYVQWYQQRPGSSPTTVIYEDNQRPSGVPDRFSGSIDSSSNSASLTISGLKTEDEADYYCQSYDSSNQWVFGGGTKLTVLGQPKAAPSVTLGQPKAAPSVTLFPPSSEELQANKATLVCLISDFYPGAVTVAWKADSSPVKAGVETTTPSKQSNNKYAASSYLSLTPEQWKSHRSYSCQVTHEGSTVEKTVAPTECS
heavy: not shown
- dilution still ELISA-positive: ≥ 64000 fold dilution from 0.2mg/ml
